Test results: patent US20130011412A1 (Genentech, published 2013)
Substitutions are numbered along the chain they refer to. Names may count otherwise.

B1: humanized 2C8.v2 (antibody, IgG1, V domains shown)
VH: EVQLVESGGGLVQPGGSLRLSCAASGYTFTSYVIHWVRQAPGKGLEWVGYNNPYNDGTNYNEKFKGRATISSDKSKNTAYLQMNSLRAEDTAVYYCSRPTMLPWFAYWGQGTLVTVSS
VL: DIQMTQSPSSLSASVGDRVTITCRASQAVSSAVAWYQQKPGKAPKLQIYSASHRYTGVPSRFSGSGSGTDFTLTISSLQPEDFATYYCQQHYSTPWTFGQGTKVEIKR
notes: also called Version 2
B2: humanized 2C8.v12 (antibody, V domains shown)
VH: B1 VH with A68F
VL: B1 VL with Q47L
notes: Human kappa / IgG1; also called Version 12; copies: 2 + 2
B3: 3F12 version 13 (3F12.v5 with Y31A, CDR-L1) (antibody, IgG1, V domains shown)
VH: EVQLVESGGGLVQPGGSLRLSCAASGYTFSSYWIEWVRQAPGKGLEWVGEISPGSGSTNYNEEFKGRATFSADNSKNTAYLQMNSLRAEDTAVYYCADGYHGYWGQGTLVTVSS
VL: DIQMTQSPSSLSASVGDRVTITCKSSQSLLASTNQKNFLAWYQQKPGKAPKLLIYWASTRDSGVPSRFSGSGSGTDFTLTISSLQPEDFATYYCQQYYSYPRTFGQGTKVEIK
notes: Alanine-scan variant of 3F12.v5; human kappa / IgG1
B4: 3F12 version 24 (3F12.v5 with G53A, CDR-H2) (antibody, IgG1, V domains shown)
VH: B3 VH with G54A
VL: B3 VL with A31Y
notes: as for B3
B5: 3F12 version 31 (3F12.v5 with E62A, CDR-H2) (antibody, IgG1, V domains shown)
VH: B3 VH with E63A
VL: B3 VL with A31Y
notes: as for B3
B6: 3F12 version 27 (3F12.v5 with N58A, CDR-H2) (antibody, IgG1, V domains shown)
VH: B3 VH with N59A
VL: B3 VL with A31Y
notes: as for B3
B7: 3F12 version 17 (3F12.v5 with F38A, CDR-L1) (antibody, IgG1, V domains shown)
VH: B3 VH
VL: B3 VL with A31Y, F38A
notes: Alanine-scan variant of 3F12.v5; human kappa / IgG1; also called 3F12 clone 17
B8: 3F12 version 25 (3F12.v5 with G55A, CDR-H2) (antibody, IgG1, V domains shown)
VH: B3 VH with G56A
VL: B3 VL with A31Y
notes: as for B3
B9: 3F12 version 23 (3F12.v5 with R96A, CDR-L3) (antibody, IgG1, V domains shown)
VH: B3 VH
VL: B3 VL with A31Y, R102A
notes: as for B3
B10: 3F12 version 19 (3F12.v5 with Y91A, CDR-L3) (antibody, IgG1, V domains shown)
VH: B3 VH
VL: B3 VL with A31Y, Y97A
notes: as for B3
B11: 3F12 version 20 (3F12.v5 with Y92A, CDR-L3) (antibody, IgG1, V domains shown)
VH: B3 VH
VL: B3 VL with A31Y, Y98A
notes: Alanine-scan variant of 3F12.v5; human kappa / IgG1; also called 3F12 clone 20
B12: 3F12 version 15 (3F12.v5 with N34A, CDR-L1) (antibody, IgG1, V domains shown)
VH: B3 VH
VL: B3 VL with A31Y, N34A
notes: Alanine-scan variant of 3F12.v5; human kappa / IgG1; also called 3F12 clone 15
B13: 3F12 version 16 (3F12.v5 with K36A, CDR-L1) (antibody, IgG1, V domains shown)
VH: B3 VH
VL: B3 VL with A31Y, K36A
notes: as for B3
B14: 3F12 version 14 of Table 2 (3F12.v5 with T33A, CDR-L1) (antibody, IgG1, V domains shown)
VH: B3 VH
VL: B3 VL with A31Y, T33A
notes: Alanine-scan variant of 3F12.v5; human kappa / IgG1; also called 3F12 clone 14
B15: 3F12 version 28 (3F12.v5 with Y59A, CDR-H2) (antibody, IgG1, V domains shown)
VH: B3 VH with Y60A
VL: B3 VL with A31Y
notes: as for B3
B16: 3F12 version 18 (3F12.v5 with Q89A, CDR-L3) (antibody, IgG1, V domains shown)
VH: B3 VH
VL: B3 VL with A31Y, Q95A
notes: as for B3
B17: 3F12 version 30 (3F12.v5 with E61A, CDR-H2) (antibody, IgG1, V domains shown)
VH: B3 VH with E62A
VL: B3 VL with A31Y
notes: as for B3
B18: 3F12 version 29 (3F12.v5 with N60A, CDR-H2) (antibody, IgG1, V domains shown)
VH: B3 VH with N61A
VL: B3 VL with A31Y
notes: as for B3
B19: 3F12 version 21 (3F12.v5 with S93A, CDR-L3) (antibody, IgG1, V domains shown)
VH: B3 VH
VL: B3 VL with A31Y, S99A
notes: Alanine-scan variant of 3F12.v5; human kappa / IgG1; also called 3F12 clone 21
B20: 3F12 version 22 (3F12.v5 with Y94A, CDR-L3) (antibody, IgG1, V domains shown)
VH: B3 VH
VL: B3 VL with A31Y, Y100A
notes: as for B3
B21: 3F12 version 9 (3F12.v5 with Y99A, CDR-H3) (antibody, IgG1, V domains shown)
VH: B3 VH with Y100A
VL: B3 VL with A31Y
notes: as for B3
B22: 3F12 version 12 (3F12.v5 with Y102A, CDR-H3) (antibody, IgG1, V domains shown)
VH: B3 VH with Y103A
VL: B3 VL with A31Y
notes: Alanine-scan variant of 3F12.v5; human kappa / IgG1; also called 3F12 clone 12
B23: 3F12 version 26 (3F12.v5 with S56A, CDR-H2) (antibody, IgG1, V domains shown)
VH: B3 VH with S57A
VL: B3 VL with A31Y
notes: as for B3
B24: phage-displayed 2C8.v2 Fab, wild-type phagemid clone (Fab, V domains shown)
VH: B1 VH
VL: B1 VL
notes: also called wild-type 2C8.v2
B25: phage-displayed 2C8 Fab clone D8 (Fab, V domains shown)
VH: B1 VH
VL: B1 VL with H91F, T94V
B26: phage-displayed 2C8 Fab clone H9 (Fab, V domains shown)
VH: B1 VH
VL: B1 VL with S93Y
B27: phage-displayed 2C8 Fab clone C12 (Fab, V domains shown)
VH: B1 VH
VL: B1 VL with Q90E
B28: phage-displayed 2C8 Fab clone G2 (Fab, V domains shown)
VH: B1 VH
VL: B1 VL with H91Y
B29: phage-displayed 2C8 Fab clone G7 (Fab, V domains shown)
VH: B1 VH
VL: B1 VL with Q90E, H91N
notes: also called 2C8 clone G7
B30: phage-displayed 2C8 Fab clone G12 (Fab, V domains shown)
VH: B1 VH
VL: B1 VL with Q90K, H91T, Y92F
B31: phage-displayed 2C8 Fab clone H6 (Fab, V domains shown)
VH: B1 VH
VL: B1 VL with Q90E, H91V
notes: also called 2C8 clone H6

What follows are binders tested against T1, recombinant human lymphotoxin-α homotrimer (human LTα3) (human, UniProt P01374 35-205) (assay: BIACORE (rhLTα)).
T1 construct: Coated on plates in the ELISAs; also called rhLTα; lymphotoxin-α3 trimer
T1 sequence (looked up): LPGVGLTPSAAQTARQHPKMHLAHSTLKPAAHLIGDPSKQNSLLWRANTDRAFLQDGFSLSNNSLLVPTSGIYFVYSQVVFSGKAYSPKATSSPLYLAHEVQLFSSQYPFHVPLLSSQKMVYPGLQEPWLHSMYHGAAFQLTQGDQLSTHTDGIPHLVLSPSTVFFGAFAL
B1 gave a Kd of 0.2 nM and a kon of 600000 M⁻¹ s⁻¹.
B2 was tested, and the Kd was 0.07 nM.

What follows are binders tested against T1, recombinant human lymphotoxin-α … (assay: plate ELISA on coated human LTα).
For B1, the “ELISA IC50 ratio” value was 1.7 ratio.
With B2 the “ELISA IC50 ratio” value was 1 ratio.

These binders were tested against T1, recombinant human lymphotoxin-α … (assay: plate-based ELISA against LTα).
B3 was tested, and the “relative binding (EC50 of the variant / EC50 of version 5)” value was 3.4 ratio.
In the case of B4, the “relative binding (EC50 of the variant / EC50 of version 5)” value is reported as 34.1 ratio.
For B5, the “relative binding (EC50 of the variant / EC50 of version 5)” value was 1.93 ratio.
For B6, the “relative binding (EC50 of the variant / EC50 of version 5)” value was 1.7 ratio.
B7 was tested, and the “relative binding (EC50 of the variant / EC50 of version 5)” value was 0.32 ratio.
With B8 the “relative binding (EC50 of the variant / EC50 of version 5)” value was 1.2 ratio.
In the case of B9, the “relative binding (EC50 of the variant / EC50 of version 5)” value is reported as 18.2 ratio.
B10 was tested, and the “relative binding (EC50 of the variant / EC50 of version 5)” value was 2.3 ratio.
With B11 the “relative binding (EC50 of the variant / EC50 of version 5)” value was 0.71 ratio.
For B12, the “relative binding (EC50 of the variant / EC50 of version 5)” value was 0.49 ratio.
In the case of B13, the “relative binding (EC50 of the variant / EC50 of version 5)” value is reported as 3.7 ratio.
For B14, the “relative binding (EC50 of the variant / EC50 of version 5)” value was 0.72 ratio.
In the case of B15, the “relative binding (EC50 of the variant / EC50 of version 5)” value is reported as 2.73 ratio.
For B16, the “relative binding (EC50 of the variant / EC50 of version 5)” value was 4.2 ratio.
In the case of B17, the “relative binding (EC50 of the variant / EC50 of version 5)” value is reported as 1.78 ratio.
With B18 the “relative binding (EC50 of the variant / EC50 of version 5)” value was 2.31 ratio.
With B19 the “relative binding (EC50 of the variant / EC50 of version 5)” value was 0.82 ratio.
For B20, the “relative binding (EC50 of the variant / EC50 of version 5)” value was 14.3 ratio.
With B21 the “relative binding (EC50 of the variant / EC50 of version 5)” value was 10 ratio.
B22 was tested, and the “relative binding (EC50 of the variant / EC50 of version 5)” value was 0.81 ratio.
For B23, the “relative binding (EC50 of the variant / EC50 of version 5)” value was 1.07 ratio.

These binders were tested against T1, recombinant human lymphotoxin-α … (assay: phage competitive ELISA: rhLTα in solution competes with plate-coated LTα).
Method: For the first round, phage were captured for 2 hours against 2 μg/ml plate-coated LTα at ambient temperature. The second and third rounds of selection were performed at ambient temperature by capturing phage for 30 minutes with 2 nM biotinylated LTα in solution phase, followed by capture on neutravidin-coated plates. The highest affinity clone was identified using a competitive ELISA. Constant concentrations of phage clones (normalized by solid-phase LTα binding OD) were incubated with increasing concentrations of LTα (0-50 nM) in solution before capture on a plate coated with 2 μg/ml LTα.
In the case of B24, the IC50 is reported as 3.14 nM.
In the case of B25, the IC50 is reported as 137 nM.
In the case of B26, the IC50 is reported as 3.8 nM.
Binder B27 has an IC50 of 3.41 nM.
With B28 the IC50 was 4.51 nM.
With B29 the IC50 was 0.57 nM.
For B30, the IC50 was 5.34 nM.
B31 gave an IC50 of 1.1 nM.
